{
  "source": "patent US5874308A",
  "about": "“Compositions and methods for modulating cell proliferation using growth factor-polysaccharide binding fusion proteins” (priority 1996, dated 1999)",
  "molecules": {"B1": {"name": "SLF-CBD: fusion protein: extracellular domain of murine steel factor linked to the cellulose binding domain of Cellulomonas fimi exoglucanase Cex (protein)", "chain": "KEICGNPVTDNVKDITKLVANLPNDYMITLNYVAGMDVLPSHCWLRDMVIQLSLSLTTLLDKFSNISEGLSNYSIIDKLGKIVDDLVLCMEENAPKNIKESPKRPETRSFTPEEFFSIFNRSIDAFKDFMVASDTSDCVLSSTLGPEKDSRVSVTKPFMLPPVAASSLRNDSSSSNRKAAKAPEDSGLQPTPTPTTPTPTPTTPTPTPTSGPAGCQVLWGVNQWNTGFTANVTVKNTSSAPVDGWTLTFSFPSGQQVTQAWSSTVTQSGSAVTVRNAPWNGSIPAGGTAQFGFNGSHTGTNAAPTAFSLNGTPCTVG"}, "B2": {"name": "control SLF: recombinant extracellular domain of murine steel factor without affinity tag (R&D systems), positive control (protein)", "chain": "KEICGNPVTDNVKDITKLVANLPNDYMITLNYVAGMDVLPSHCWLRDMVIQLSLSLTTLLDKFSNISEGLSNYSIIDKLGKIVDDLVLCMEENAPKNIKESPKRPETRSFTPEEFFSIFNRSIDAFKDFMVASDTSDCVLSSTLGPEKDSRVSVTKPFMLPPVAASSLRNDSSSSNRKAAKAPEDSGLQ"}, "B3": {"name": "CBD: recombinant cellulose binding domain of Cex, negative control (protein)", "chain": "SGPAGCQVLWGVNQWNTGFTANVTVKNTSSAPVDGWTLTFSFPSGQQVTQAWSSTVTQSGSAVTVRNAPWNGSIPAGGTAQFGFNGSHTGTNAAPTAFSLNGTPCTVG"}},
  "key": {"[1]": {"target": "T1, N1 (CBDN1) (Cellulomonas fimi, UniProt P14090)", "T1 construct": "leader (signal) peptide of C. fimi exoglucanase Cex (N); made in house; host or cells: E. coli JM101 (pTugKN1), purified from culture supernatant", "T1 sequence (P14090 33-184)": "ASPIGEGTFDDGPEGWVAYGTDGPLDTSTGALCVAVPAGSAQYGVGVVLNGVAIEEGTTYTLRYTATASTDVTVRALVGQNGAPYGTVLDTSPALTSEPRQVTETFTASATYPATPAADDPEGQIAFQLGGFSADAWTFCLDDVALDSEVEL", "experiment": "N1 binding constants by NMR", "settings": "35° C.; read-out: NMR Ka (converted)"}, "[2]": {"target": "T2, CBDN1 (Cellulomonas fimi, UniProt P14090)", "T2 construct": "leader (signal) peptide of C. fimi exoglucanase Cex (N); made in house; host or cells: E. coli JM101 (pTugKN1), purified from culture supernatant", "T2 sequence (P14090 33-184)": "T1 sequence (P14090 33-184)", "experiment": "Isothermal titration microcalorimetry of oligosaccharide binding to CBDN1", "settings": "35° C.; for Kd: 50-mM PBS, pH 7, read-out: Isothermal Titration Microcalorimetry Ka (converted)", "excerpt": "Microcalorimetry was used to measure binding thermodynamics for CBDN1 to a wide range of water-soluble oligosaccharides with the aim of identifying a set of suitable ligands for the affinity partition system. […] For both oligosaccharides, CBDN1 binding is as tight or even tighter than nearly all PEG-based affinity ligands (e.g., Cibacron blue-PEG, Procion red-PEG, dinitrophenyl-PEG, diacetic acid-PEG) currently in use in affinity partition systems."}, "[3]": {"test_system": "SLF dependent bone marrow cell line B6SUtA1", "experiment": "MTT proliferation assay of SLF-CBD in solution or bound to BMCC", "format": "cell-based", "settings": "for distribution of activity between BMCC and supernatant after Factor Xa cleavage: 1 μg/ml BMCC, Factor Xa added; for effect of presence of BMCC on activity: protein concentration varied; for distribution of activity between BMCC and supernatant: bound to 1 μg/ml BMCC, matrix removed by centrifugation and resuspended; for potency when immobilized on cellulose vs in solution (maximum proliferative response, specific activity): immobilized on cellulose (BMCC); for proliferative activity in solution (MTT), compared with control SLF: non-immobilized, absence of an immobilization matrix", "experimental": "Samples of purified SLF-CBD were diluted in H-SFM. […] In experiments where BMCC was used, 50 μl of a BMCC suspension in H-SFM was added to each well, and in experiments where no BMCC was used 50 μl of H-SFM alone was added.\nStatistical analysis of data was carried out with regression curve fitting in two iterations using non-linear regression analysis from the GraFit version 3.0 statistical analysis program (Erithacus Software Ltd., Staines, U.K.)."}, "[4]": {"test_system": "B6SUtA cells", "experiment": "Activity of SLF-CBD bound to regenerated cellulose coated microtiter plates (MTT)", "format": "cell-based", "experimental": "A 1% (w/v) solution of cellulose acetate was prepared by adding one gram of cellulose acetate (Kodak Inc.) to 99 ml of acetic acid. One hundred μl of this solution was added to each well of the standard 96 well tissue culture plates used above, and the acetic acid allowed to evaporate. One hundred μl of 50 mM NaOH was then added to each well and left for 20 minutes to regenerate a cellulose surface. The NaOH was then poured out, and the wells rinsed three times with PBS. Three hundred μl of 70% (v/v) ethanol was then added to each well, the plate lid replaced, and the ethanol allowed to evaporate as a sterilization step.\nActivity tests were carried out as previously described except that a cellulose acetate derived surface was used to immobilize SLF/CBD instead of BMCC. Twenty μl protein test samples were put into cellulose coated wells. […] Activity was measured after 48 h of culture using the […] with data points collected in quadruplicate. […]\nNon-tagged SLF was used as a control. In one set of control experiments, SLF was added to cellulose coated tissue culture wells as before, the surface was seeded with fresh cells three times, and the proliferation measured. […] These surfaces were seeded with cells three times and the activity measured."}, "[5]": {"experiment": "Binding of SLF-CBD to Avicel cellulose during purification", "settings": "affinity chromatography on Avicel", "experimental": "The plasmid pSLF/CBD 1.0 was transformed into E. coli JM101 (Yanisch-Perronet al. (1985) Gene 33: 103-119) for expression. Several colonies were scraped from a plate and used to inoculate a 5 ml test tube of Terrific Broth (Tartof and Hobbs, Bethesda Res. Lab. Focus 9: 12) containing […] kanamycin. This tube was incubated with shaking at 37° C. for four hours and then used to inoculate four flasks containing 500 ml of the same medium at 0.2% volume. These flasks were then incubated at 37° C. with shaking at 250 rpm until a cell culture optical density (OD550) […]. The cells were then induced by the addition of 0.1 mM IPTG and shifted to 30° C. with shaking at 100 rpm for a further eight hours. Cells were then harvested and the periplasmic proteins isolated by osmotic shock (Neu and Heppel (1965) J. Biol. Chem. 240: 3685-3692). Five mg of Avicel microcrystalline cellulose (FMC International, Cork, Ireland) was added to either 10 ml of culture supernatant or 1 ml of periplasmic extract and then removed by centrifugation. SDS-PAGE loading buffer was than added to the Avicel, which was then boiled for two minutes and loaded directly onto a gel for SDS-PAGE analysis (Laemmli, supra.) (FIG. 8A)."}, "[6]": {"settings": "BMCC fixed at 1 μg/ml or 14 μg/ml"}},
  "note": "“Also recorded” adds a separate entry of the source.",
  "data": [
    {"molecule": "OC[C@H]1O[C@@H](O[C@H]2[C@H](O)[C@@H](O)[C@H](O[C@H]3[C@H](O)[C@@H](O)[C@H](O[C@H]4[C@H](O)[C@@H](O)[C@H](O[C@H]5[C@H](O)[C@@H](O)[C@H](O[C@H]6[C@H](O)[C@@H](O)C(O)O[C@@H]6CO)O[C@@H]5CO)O[C@@H]4CO)O[C@@H]3CO)O[C@@H]2CO)[C@H](O)[C@@H](O)[C@@H]1O", "note": "(stereo partly shown) [Cellohexaose]", "values": [
      {"measurement": "Kd", "setting": "[1]", "result": 19.6, "unit": "µM"},
      {"measurement": "Isothermal Titration Microcalorimetry -TΔS°", "setting": "[2]", "result": "0.79 ± 0.1", "unit": "kcal/mol"},
      {"measurement": "Isothermal Titration Microcalorimetry ΔH°", "setting": "[2]", "result": "-6.9 ± 0.2", "unit": "kcal/mol"},
      {"measurement": "Kd", "setting": "[2]", "result": 0.0397, "unit": "mM"}
    ]},
    {"molecule": "OC[C@H]1O[C@@H](O[C@H]2[C@H](O)[C@@H](O)[C@H](O[C@H]3[C@H](O)[C@@H](O)[C@H](O[C@H]4[C@H](O)[C@@H](O)[C@H](O[C@H]5[C@H](O)[C@@H](O)C(O)O[C@@H]5CO)O[C@@H]4CO)O[C@@H]3CO)O[C@@H]2CO)[C@H](O)[C@@H](O)[C@@H]1O", "note": "(stereo partly shown) [Cellopentaose]", "values": [
      {"measurement": "Kd", "setting": "[1]", "result": 29.4, "unit": "µM"},
      {"measurement": "Isothermal Titration Microcalorimetry -TΔS°", "setting": "[2]", "result": "0.86 ± 0.1", "unit": "kcal/mol"},
      {"measurement": "Isothermal Titration Microcalorimetry ΔH°", "setting": "[2]", "result": "-6.8 ± 0.2", "unit": "kcal/mol"},
      {"measurement": "Kd", "setting": "[2]", "result": 0.0559, "unit": "mM"}
    ]},
    {"molecule": "OC[C@H]1O[C@@H](O[C@H]2[C@H](O)[C@@H](O)[C@H](O[C@H]3[C@H](O)[C@@H](O)C(O)O[C@@H]3CO)O[C@@H]2CO)[C@H](O)[C@@H](O)[C@@H]1O", "note": "(stereo partly shown) [Cellotriose]", "values": [
      {"measurement": "Kd", "setting": "[1]", "result": 5560, "unit": "µM"}
    ]},
    {"molecule": "OC[C@H]1O[C@@H](O[C@H]2[C@H](O)[C@@H](O)[C@H](O[C@H]3[C@H](O)[C@@H](O)[C@H](O[C@H]4[C@H](O)[C@@H](O)C(O)O[C@@H]4CO)O[C@@H]3CO)O[C@@H]2CO)[C@H](O)[C@@H](O)[C@@H]1O", "note": "(stereo partly shown) [Cellotetraose]", "values": [
      {"measurement": "Kd", "setting": "[1]", "result": 238, "unit": "µM"},
      {"measurement": "Isothermal Titration Microcalorimetry -TΔS°", "setting": "[2]", "result": "1.4 ± 0.1", "unit": "kcal/mol"},
      {"measurement": "Isothermal Titration Microcalorimetry ΔH°", "setting": "[2]", "result": "-6.4 ± 0.2", "unit": "kcal/mol"},
      {"measurement": "Kd", "setting": "[2]", "result": 0.244, "unit": "mM"}
    ]},
    {"molecule": "B1", "values": [
      {"measurement": "neutralization of activity by anti-SLF neutralizing polyclonal antibodies", "setting": "[3]; 0.6 nM SLF-CBD, in solution", "result": "neutralized"},
      {"measurement": "distribution of activity between BMCC and supernatant after Factor Xa cleavage", "setting": "[3]", "result": "the bulk of the activity was found in the supernatant"},
      {"measurement": "distribution of activity between BMCC and supernatant after Factor Xa cleavage", "setting": "[3]; listed as SLF/CBD", "result": "the activity was no longer associated with the BMCC"},
      {"measurement": "SLF-CBD concentration at maximum stimulatory activity", "setting": "[3]; BMCC constant at 1 μg/ml (1.22 cm^2/ml)", "result": "about 2000 pM"},
      {"measurement": "ED50 (protein concentration for half maximal response) in presence vs absence of BMCC", "setting": "[3]; [6]", "result": "decrease"},
      {"measurement": "total cell proliferation in presence vs absence of BMCC", "setting": "[3]; [6]", "result": "increase"},
      {"measurement": "effect of presence of BMCC on activity", "setting": "[3]; [6]", "result": "clearly more active in the presence of BMCC"},
      {"measurement": "BMCC concentration at maximum activity", "setting": "[3]; SLF-CBD held constant at 1500 pM, BMCC varied", "result": 44, "unit": "µg/mL"},
      {"measurement": "distribution of activity between BMCC and supernatant", "setting": "[3]", "result": "the bulk of the activity was associated with the BMCC; also recorded: most of the activity was associated with the BMCC particles"},
      {"measurement": "potency when immobilized on cellulose vs in solution (maximum proliferative response, specific activity)", "setting": "[3]", "result": "significantly more potent; also recorded: to a greater extent than non-immobilized steel factor"},
      {"measurement": "proliferative activity in solution (MTT), compared with control SLF", "setting": "[3]", "result": "similar"},
      {"measurement": "ED50 of soluble fusion protein vs control protein", "setting": "[3]; soluble form", "result": "identical"},
      {"measurement": "maximum cell density generated vs control protein", "setting": "[3]; soluble form", "result": "not quite as great"},
      {"measurement": "fraction bound to reconstituted cellulose surface (activity on plate vs supernatant)", "setting": "[4]; cellulose coated microtiter plate", "result": "essentially all"},
      {"measurement": "proliferative activity after repeated use of the same surface", "setting": "[4]; three consecutive rounds of 48 h cell culture", "result": "no loss in proliferative activity; also recorded: no loss of proliferative activity; also recorded: without loss of growth-stimulating activity"},
      {"measurement": "binding of the fusion protein to cellulose", "setting": "[5]", "result": "strong and difficult to reverse"}
    ]},
    {"molecule": "B2", "values": [
      {"measurement": "effect of presence of BMCC on activity", "setting": "[3]; [6]", "result": "no effect"},
      {"measurement": "distribution of activity between BMCC and supernatant", "setting": "[3]", "result": "most of the activity was in the supernatant"},
      {"measurement": "distribution of activity between BMCC and supernatant", "setting": "[3]; listed as non-tagged SLF control", "result": "most of the activity was associated with the supematant"},
      {"measurement": "potency when immobilized on cellulose vs in solution (maximum proliferative response, specific activity)", "setting": "[3]", "result": "not observed"}
    ]},
    {"molecule": "B3", "values": [
      {"measurement": "proliferative activity in solution (MTT), compared with control SLF", "setting": "[3]", "result": "did not stimulate the proliferation"}
    ]}
  ]
}
